The series concerns the molecule itself. The experiment in a line: cross-linking; in vitro BMOE cysteine cross-linking of purified ParB (10 uM monomer, 1 mM BMOE, 5 min RT; 150 mM NaCl, 50 mM Tris-HCl pH 7.5, 5 mM MgCl2); without ligand, with 1 mM CTP or CTPγS, with 1 uM 40 bp parS DNA, or with both; SDS-PAGE, Coomassie.

B1: ParB(R105C, H133C), purified (natural protein, B. subtilis, UniProt P26497 1-282, looked up)
chain: MAKGLGKGINALFNQVDLSEETVEEIKIADLRPNPYQPRKHFDDEALAELKESVLQHGILQPLIVRKSLKGYDIVAGERRFRAAKLAGLDTVPAIVRELSEALMCEIALLENLQREDLSPLEEAQAYDSLLKCLDLTQEQLAKRLGKSRPHIANHLRLLTLPENIQQLIAEGTLSMGHGRTLLGLKNKNKLEPLVQKVIAEQLNVRQLEQLIQQLNQNVPRETKKKEPVKDAVLKERESYLQNYFGTTVNIKRQKKKGKIEIEFFSNEDLDRILELLSERES
notes: Purification as in Soh et al., 2019; source: E. coli BL21-Gold (DE3), untagged, purified (ammonium sulfate, heparin, HiTrap SP, Superdex 200)
Regarding B1, the binding result is “binds”.

B2: ParB(T22C, E78Q), purified (natural protein, B. subtilis, UniProt P26497 1-282, looked up)
chain: MAKGLGKGINALFNQVDLSEECVEEIKIADLRPNPYQPRKHFDDEALAELKESVLQHGILQPLIVRKSLKGYDIVAGQRRFRAAKLAGLDTVPAIVRELSEALMREIALLENLQREDLSPLEEAQAYDSLLKHLDLTQEQLAKRLGKSRPHIANHLRLLTLPENIQQLIAEGTLSMGHGRTLLGLKNKNKLEPLVQKVIAEQLNVRQLEQLIQQLNQNVPRETKKKEPVKDAVLKERESYLQNYFGTTVNIKRQKKKGKIEIEFFSNEDLDRILELLSERES
notes: the combination is not spelled out for the purified protein; also called EQ mutant; source: E. coli BL21-Gold (DE3), untagged, purified (ammonium sulfate, heparin, HiTrap SP, Superdex 200)
As for B2, the binding result is on record as “binds”.

B3: ParB(T22C), purified (natural protein, B. subtilis, UniProt P26497 1-282, looked up)
chain: MAKGLGKGINALFNQVDLSEECVEEIKIADLRPNPYQPRKHFDDEALAELKESVLQHGILQPLIVRKSLKGYDIVAGERRFRAAKLAGLDTVPAIVRELSEALMREIALLENLQREDLSPLEEAQAYDSLLKHLDLTQEQLAKRLGKSRPHIANHLRLLTLPENIQQLIAEGTLSMGHGRTLLGLKNKNKLEPLVQKVIAEQLNVRQLEQLIQQLNQNVPRETKKKEPVKDAVLKERESYLQNYFGTTVNIKRQKKKGKIEIEFFSNEDLDRILELLSERES
notes: as for B1
For B3, the binding result was “binds”.

B4: ParB(A102C, H133C), purified (natural protein, B. subtilis, UniProt P26497 1-282, looked up)
chain: MAKGLGKGINALFNQVDLSEETVEEIKIADLRPNPYQPRKHFDDEALAELKESVLQHGILQPLIVRKSLKGYDIVAGERRFRAAKLAGLDTVPAIVRELSECLMREIALLENLQREDLSPLEEAQAYDSLLKCLDLTQEQLAKRLGKSRPHIANHLRLLTLPENIQQLIAEGTLSMGHGRTLLGLKNKNKLEPLVQKVIAEQLNVRQLEQLIQQLNQNVPRETKKKEPVKDAVLKERESYLQNYFGTTVNIKRQKKKGKIEIEFFSNEDLDRILELLSERES
notes: as for B1
Regarding B4, the binding result is “binds”.

B5: ParB(T22C, E111Q), purified (natural protein, B. subtilis, UniProt P26497 1-282, looked up)
chain: MAKGLGKGINALFNQVDLSEECVEEIKIADLRPNPYQPRKHFDDEALAELKESVLQHGILQPLIVRKSLKGYDIVAGERRFRAAKLAGLDTVPAIVRELSEALMREIALLQNLQREDLSPLEEAQAYDSLLKHLDLTQEQLAKRLGKSRPHIANHLRLLTLPENIQQLIAEGTLSMGHGRTLLGLKNKNKLEPLVQKVIAEQLNVRQLEQLIQQLNQNVPRETKKKEPVKDAVLKERESYLQNYFGTTVNIKRQKKKGKIEIEFFSNEDLDRILELLSERES
notes: as for B2
Regarding B5, the binding result is “binds”.

The record behind these values is paper doi:10.1101/2021.05.05.442573, “Relief of ParB autoinhibition by parS DNA catalysis and ParB recycling by CTP hydrolysis promote bacterial centromere assembly” (bioRxiv, 2021).
